{
  "source": "paper PMC6602975",
  "about": "“Structure and function of the Orc1 BAH-nucleosome complex” (Nature Communications, 2019)",
  "binders": {"B1": {"name": "Orc1 BAH L79I mutant (domain or fragment)", "chain": "MAKTLKDLQGWEIITTDEQGNIIDGGQKRLRRRGAKTEHYLKRSSDGIKLGRGDSVVMHNEAAGTYSVYMIQELRLNTINNVVELWALTYLRWFEVNPLAHYRQFNPDANILNRPLNYYNKLFSETANKNELYLTAELAELQLFNFIRVANVMDGSKWEVLKGNVDPERDFTVRYICEPTGEKFVDINIEDVKAYIKKVEPREAQEYLKDLTLP", "modifications": "N-alpha-acetyl on A2 (acetylated N-terminus visible in the structure)", "notes": "Orc1 BAH domain, S. cerevisiae, amino acids 1-214, L79I; Used for the crystal structure and in EMSA; source: SF9 insect cells (baculovirus), purified (Ni-NTA, SP-Sepharose FF, Superdex-200)"}},
  "key": {"[1]": {"biological_target": "T1, Histone H4 (X. laevis), in the nucleosome core particle (X. laevis, UniProt P62799 1-103)", "T1 construct": "histone H4, X. laevis; Stood in the crystal as part of the nucleosome m12; source: bacterial expression vector", "assay": "crystal structure; Orc1 BAH L79I mixed with nucleosome 3:1, complex purified by gel filtration; sitting drop at 4 °C, 6 mM Na-cacodylate pH 6.0, 0.4 mM spermine-HCl, 2 mM MgCl2, 1.75% PEG 400; 3.3 Å", "conditions": "both partners purified"}, "[2]": {"biological_target": "Histone H2B (X. laevis), in the nucleosome core particle (X. laevis, UniProt P02281 1-126)", "assay": "crystal structure; Orc1 BAH L79I mixed with nucleosome 3:1, complex purified by gel filtration; sitting drop at 4 °C, 6 mM Na-cacodylate pH 6.0, 0.4 mM spermine-HCl, 2 mM MgCl2, 1.75% PEG 400; 3.3 Å", "conditions": "both partners purified"}},
  "data": [
    {"binder": "B1", "values": [
      {"measurement": "binding result", "setting": "[1]", "result": "binds"},
      {"measurement": "binding result", "setting": "[2]", "result": "binds"}
    ]}
  ]
}
